Our source for the Kd values is publication PMC8048981 (2021).

This assay deals with MDM2 (Homo sapiens, UniProt Q00987). The experiment in a line: fluorescence polarization. In general terms: In fluorescence polarisation assays a small probe gives low polarisation when free and higher when bound to something large.

Bridge positions count the residues as written; N and C are the ends.

MDM2, sequence (Q00987 whole entry): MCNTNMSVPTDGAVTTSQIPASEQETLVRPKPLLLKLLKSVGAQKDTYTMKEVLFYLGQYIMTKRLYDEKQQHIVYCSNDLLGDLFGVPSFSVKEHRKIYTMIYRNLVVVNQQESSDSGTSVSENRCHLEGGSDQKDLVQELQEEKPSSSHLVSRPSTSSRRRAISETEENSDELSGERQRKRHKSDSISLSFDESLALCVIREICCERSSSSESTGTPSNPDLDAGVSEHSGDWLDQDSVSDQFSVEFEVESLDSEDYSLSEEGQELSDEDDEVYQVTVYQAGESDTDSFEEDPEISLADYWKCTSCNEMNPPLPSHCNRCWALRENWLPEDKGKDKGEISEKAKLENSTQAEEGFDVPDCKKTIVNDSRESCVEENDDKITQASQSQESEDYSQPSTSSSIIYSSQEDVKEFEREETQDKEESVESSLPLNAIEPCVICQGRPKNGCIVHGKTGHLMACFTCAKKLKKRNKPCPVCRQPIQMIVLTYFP

For the molecule {5(6)‑carboxyfluorescein}-QSQQTFCNLWRLLKQN-NH2 (linker 7-14 via para‑phenyl thioalkyne amide (reagent 9a)) [stapled p53-derived peptide 29a'], the Kd (usually the equilibrium constant for the complex coming apart) stood at 29 nM.
Under {5(6)‑carboxyfluorescein}-QSQQTFCNLWRLLKQN-NH2 [linear p53-derived peptide 28'] stands 346 nM.
